Paper PMC3663649, “Nucleosomal DNA binding drives the recognition of H3K36-methylated nucleosomes by the PSIP1-PWWP domain” (Epigenetics & Chromatin, 2013)
Read-outs that look alike come from different tables or passages of the source. One block for each substance: values may come before it.

How the values were obtained:
PSIP1-PWWP (human) [1] = experiment: NMR titration (1H-15N HSQC CSP); conditions: EMSA: 0.2X TBE, 4 C, 1.5 or 3 pmol nucleosome in 8 uL, up to 3 molar equivalents of protein, native 5% gel; NMR: 293 K (DNA titration), 308 K (nucleosome …)
[2] = target: H3KC36me3 nucleosomes (recombinant MLA nucleosomes reconstituted on 601 DNA) (Drosophila) (UniProt P02299); experiment: native gel or EMSA; 1.5 or 3 pmol reconstituted nucleosome with 0, 0.5, 1, 2 and 3 molar equivalents of glutathione agarose purified GST-PWWP protein; 0.2X TBE, 4°C, native 5% gel, ethidium bromide; band densities fitted to a 2:1 model
GST-PSIP1-PWWP (human) = experiment: EMSA; conditions: histone H3KC36me3 (methyl-lysine analogue); EMSA: 0.2X TBE, 4 C, 1.5 or 3 pmol nucleosome in 8 uL, up to 3 molar equivalents of protein, native 5% gel; NMR: 293 K (DNA titration), 308 K (nucleosome …)
PSIP1-PWWP (human) [3] = experiment: NMR methyl-TROSY line shape fit; conditions: 308 K; 1:2 nucleosome:PWWP model; koff 500 s-1; histone H3KC36me3 (methyl-lysine analogue); EMSA: 0.2X TBE, 4 C, 1.5 or 3 pmol nucleosome in 8 uL, up to 3 molar equivalents of protein, native 5% gel; NMR: 293 K (DNA titration), 308 K (nucleosome …)
[4] = target: PSIP1-PWWP domain (residues 3 to 100, GST removed by thrombin) (human) (UniProt O75475); experiment: NMR titration; 1H-15N HSQC of 0.3 mM PWWP, peptide added; 20 mM NaPi pH 7.0, 100 mM NaCl, 293 K, 600 MHz; chemical shift perturbation curves fitted in fast exchange
PSIP1-PWWP domain (residues 3 to 100, GST removed by thrombin) (human), sequence (O75475 3-100): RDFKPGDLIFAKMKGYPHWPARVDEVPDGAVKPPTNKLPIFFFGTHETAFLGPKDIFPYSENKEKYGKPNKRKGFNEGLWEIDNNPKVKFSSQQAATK

[5] = target: H3KC36me3 nucleosomes (recombinant MLA nucleosomes reconstituted on 601 DNA) (Drosophila) (UniProt P02299)

GST-PWWP (PSIP1-PWWP domain, residues 3 to 100, GST fusion), sequence (O75475 3-100): as above
PSIP1-PWWP domain (residues 3 to 100, GST removed by thrombin), sequence (O75475 3-100): as above

Substance: SRE-DNA dsDNA fragment
Kd (PSIP1-PWWP (human) [1]): 150 µM

Substance: GST-PWWP (PSIP1-PWWP domain, residues 3 to 100, GST fusion) (from UniProt O75475 3-100) (domain or fragment)
Kd [2]: 0.5 µM

Substance: H3KC36me3 MLA nucleosome on 601 DNA
Kd (GST-PSIP1-PWWP (human)): 0.5 µM
Kd (PSIP1-PWWP (human) [3]): 1.5 µM

Kd [4]: 11000 µM
Substance: H3KC36me3 peptide (NMR titration)

Kd [5]: 1.5 µM
Substance: PSIP1-PWWP domain (residues 3 to 100, GST removed by thrombin) (from UniProt O75475 3-100) (domain or fragment)
